The text below walks through data of patent US20240109954A1 (GENERAL HOSPITAL, published 2024).

Test [1] concerns the target T1, mouse FcγRIV (mouse, UniProt A0A0B4J1G0 21-203).
T1 construct: also called mFcγRIV
T1 sequence: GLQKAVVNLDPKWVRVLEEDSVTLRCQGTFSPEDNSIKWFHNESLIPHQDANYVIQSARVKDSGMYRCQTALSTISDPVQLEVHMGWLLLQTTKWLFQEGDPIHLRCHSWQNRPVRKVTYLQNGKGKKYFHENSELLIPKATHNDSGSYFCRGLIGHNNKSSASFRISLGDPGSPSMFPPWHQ
In words: BLI, mAb on anti-human Fab-CH1 sensor, FcγR in solution.

Test [2] deals with T2, mouse FcγRIIb (mouse, UniProt P08101 30-210).
T2 construct: also called mFcγRIIb; mFcγR2b
T2 sequence: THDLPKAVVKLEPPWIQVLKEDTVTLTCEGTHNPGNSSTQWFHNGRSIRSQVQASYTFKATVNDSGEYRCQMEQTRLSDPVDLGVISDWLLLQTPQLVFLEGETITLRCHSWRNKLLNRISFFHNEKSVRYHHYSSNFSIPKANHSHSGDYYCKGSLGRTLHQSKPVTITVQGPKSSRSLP
The test is described as above.

Test [3] concerns the target T3, mouse FcγRI (mouse, UniProt P26151 25-297).
T3 construct: also called mFcγRI
T3 sequence: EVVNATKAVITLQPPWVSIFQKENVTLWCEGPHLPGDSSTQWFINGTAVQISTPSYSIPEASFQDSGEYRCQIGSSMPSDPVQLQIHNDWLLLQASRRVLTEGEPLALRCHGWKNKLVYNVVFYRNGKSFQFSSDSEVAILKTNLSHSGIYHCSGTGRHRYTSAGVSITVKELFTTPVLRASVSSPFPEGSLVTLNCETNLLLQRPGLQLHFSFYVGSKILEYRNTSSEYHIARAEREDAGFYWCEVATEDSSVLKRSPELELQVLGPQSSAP
Described as above.

Test [4] has as its target T4, mouse FcγRIII (mouse, UniProt P08508 31-215).
T4 construct: also called mFcγRIII; mFcγR3
T4 sequence: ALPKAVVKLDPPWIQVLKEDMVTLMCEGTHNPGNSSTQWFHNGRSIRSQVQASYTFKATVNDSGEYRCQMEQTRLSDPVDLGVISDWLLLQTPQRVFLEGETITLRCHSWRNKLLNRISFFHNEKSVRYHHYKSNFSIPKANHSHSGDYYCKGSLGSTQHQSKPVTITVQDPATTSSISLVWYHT
The test is described as above.

The target in test [5] is T5, human FcγR3A (F158) (human, UniProt P08637 17-208).
T5 construct: also called huFcγR3A
As to the kind of experiment: SPR, mAb printed on chip, FcγR injected. On the technique in general: Surface plasmon resonance follows binding to a sensor surface in real time, without labels.

The target of test [6] is T6, human FcγR2A (R131) (human, UniProt P12318 34-217).
T6 construct: also called huFcγR2A
T6 sequence: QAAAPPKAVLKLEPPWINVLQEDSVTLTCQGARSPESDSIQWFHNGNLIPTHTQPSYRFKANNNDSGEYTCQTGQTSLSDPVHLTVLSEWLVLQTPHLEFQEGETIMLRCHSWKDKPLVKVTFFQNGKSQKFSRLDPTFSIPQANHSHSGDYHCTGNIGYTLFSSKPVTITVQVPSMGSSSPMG
In words: SPR, mAb printed on chip, FcγR injected.

The target of test [7] is T7, human FcγR3B (human, UniProt O75015 17-200).
T7 construct: also called huFcγR3B
In words: SPR, mAb printed on chip, FcγR injected.

Test [8] concerns the target T8, human FcγR2B (human, UniProt P31994 43-217).
T8 construct: also called huFcγR2B
T8 sequence: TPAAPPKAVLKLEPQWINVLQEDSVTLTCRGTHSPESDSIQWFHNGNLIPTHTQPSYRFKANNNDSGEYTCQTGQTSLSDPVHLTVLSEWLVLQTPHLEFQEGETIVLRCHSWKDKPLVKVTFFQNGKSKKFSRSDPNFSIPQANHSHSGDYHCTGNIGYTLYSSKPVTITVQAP
In words: SPR, mAb printed on chip, FcγR injected.

In test [9] the target is T1, mouse FcγRIV. In words: SPR (IBIS MX96): mAb printed on the chip, recombinant FcγR injected at 10 to 0.005 µM; axis 'KD, M^-1', that is the reciprocal of KD.
Test [10] has as its target T2, mouse FcγRIIb. In words: BLI, mAb on anti-human Fab-CH1 sensor, FcγR in solution. This is another data set of the same source. (In BLI a coated tip is dipped into the sample, and binding shifts an interference pattern.)
Test [11] concerns the target T9, EBOV GP displayed on vesicular stomatitis virus (VSV) pseudovirions (Ebola virus, UniProt Q05320 33-676).
T9 sequence: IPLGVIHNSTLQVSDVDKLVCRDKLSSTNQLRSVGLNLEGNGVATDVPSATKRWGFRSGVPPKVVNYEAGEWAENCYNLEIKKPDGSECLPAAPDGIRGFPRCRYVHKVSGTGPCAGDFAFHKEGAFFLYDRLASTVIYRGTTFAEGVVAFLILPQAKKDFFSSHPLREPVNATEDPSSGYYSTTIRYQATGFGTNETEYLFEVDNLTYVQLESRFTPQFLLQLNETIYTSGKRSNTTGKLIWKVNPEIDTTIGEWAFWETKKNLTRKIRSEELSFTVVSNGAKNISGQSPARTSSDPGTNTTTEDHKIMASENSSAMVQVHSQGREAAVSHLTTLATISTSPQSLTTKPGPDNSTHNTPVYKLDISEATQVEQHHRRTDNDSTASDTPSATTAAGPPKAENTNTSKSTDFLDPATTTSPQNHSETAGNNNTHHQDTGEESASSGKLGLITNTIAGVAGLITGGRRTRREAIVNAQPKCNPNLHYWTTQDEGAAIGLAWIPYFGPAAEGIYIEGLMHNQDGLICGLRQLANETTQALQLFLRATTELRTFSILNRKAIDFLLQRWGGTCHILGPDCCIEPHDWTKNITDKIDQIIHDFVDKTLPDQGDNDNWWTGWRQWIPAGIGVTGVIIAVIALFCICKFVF
As to the kind of experiment: cell-based or functional assay.

The target in test [12] is T6, human FcγR2A (R131). In words: SPR, mAb printed on chip, FcγR injected. The source holds these as a separate data set.
Test [13] has as its target T2, mouse FcγRIIb. As to the kind of experiment: SPR (IBIS MX96): mAb printed on the chip, recombinant FcγR injected at 10 to 0.005 µM; axis 'KD, M^-1', that is the reciprocal of KD.
In test [14] the target is T7, human FcγR3B. The test is described as above.

Substitutions are numbered along the chain they refer to. Numbers in names are those of the source.

T7 sequence (O75015 17-200): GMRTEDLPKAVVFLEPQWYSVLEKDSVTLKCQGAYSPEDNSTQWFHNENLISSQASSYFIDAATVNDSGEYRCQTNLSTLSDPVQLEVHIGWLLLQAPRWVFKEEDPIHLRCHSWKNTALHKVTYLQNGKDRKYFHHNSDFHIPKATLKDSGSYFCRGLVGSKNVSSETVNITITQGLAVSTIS
T5 sequence (P08637 17-208): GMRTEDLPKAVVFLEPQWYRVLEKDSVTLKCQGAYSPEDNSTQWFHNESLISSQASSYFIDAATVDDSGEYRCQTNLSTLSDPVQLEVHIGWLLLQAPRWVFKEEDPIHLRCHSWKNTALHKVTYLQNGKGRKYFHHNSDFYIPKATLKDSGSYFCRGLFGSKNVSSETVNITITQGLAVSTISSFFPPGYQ

B1: VIC16-IgG1 (antibody)
heavy: not shown
light: DIVITQDTASLAVSRGQRATISCRASESVEYYGTTLMQWYQQRPGQPPKLLIYGASNVESGVPARFSGSGSGTDFSLNIHPVEEDDIAMYFCQQSRKVPYTFGGGTKLEIKRTVAAPSVFIFPPSDEQLKSGTASVVCLLNNFYPREAKVQWKVDNALQSGNSQESVTEQDSKDSTYSLSSTLTLSKADYEKHKVYACEVTHQGLSSPVTKSFNRGEC
notes: also called VIC16 human IgG1; wild type IgG1
For orientation: Kd means the constant that tells how readily two partners part at equilibrium. Consider B1, for which the Kd stood at 240 nM in [1]; 14900 nM in test [2]; 80 nM in test [3]; 2830 nM in [4]; 6100 nM in test [5]; 30000 nM in test [6]. Further, the figures for the Kd in test [7] and in test [8] were 25000 nM and 23000 nM, respectively. Besides, the “fold-change relative to IgG1” value in test [1], in [2], in test [3], in test [4], in test [5] and in test [6] was 1 fold each time. Also, the “fold-change relative to IgG1” value in test [7] and in test [8] was 1 fold in each case.

B2: VIC16-SELF (antibody)
heavy: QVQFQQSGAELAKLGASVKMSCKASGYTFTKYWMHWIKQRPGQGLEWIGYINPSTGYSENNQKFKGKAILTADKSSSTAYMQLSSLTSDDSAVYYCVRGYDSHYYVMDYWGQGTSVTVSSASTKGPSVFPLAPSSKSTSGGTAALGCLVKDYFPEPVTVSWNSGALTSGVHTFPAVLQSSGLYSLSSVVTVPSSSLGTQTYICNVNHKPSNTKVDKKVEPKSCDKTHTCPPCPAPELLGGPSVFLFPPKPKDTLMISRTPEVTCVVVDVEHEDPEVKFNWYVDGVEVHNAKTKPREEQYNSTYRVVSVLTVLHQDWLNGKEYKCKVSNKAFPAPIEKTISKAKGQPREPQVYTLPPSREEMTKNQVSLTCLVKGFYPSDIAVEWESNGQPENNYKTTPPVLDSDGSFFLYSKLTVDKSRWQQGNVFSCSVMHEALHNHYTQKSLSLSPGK
light: B1 light
On to B2, for which the binding result in [9] was “binds”.

B3: VIC16-EFTEA (antibody)
heavy: QVQFQQSGAELAKLGASVKMSCKASGYTFTKYWMHWIKQRPGQGLEWIGYINPSTGYSENNQKFKGKAILTADKSSSTAYMQLSSLTSDDSAVYYCVRGYDSHYYVMDYWGQGTSVTVSSASTKGPSVFPLAPSSKSTSGGTAALGCLVKDYFPEPVTVSWNSGALTSGVHTFPAVLQSSGLYSLSSVVTVPSSSLGTQTYICNVNHKPSNTKVDKKVEPKSCDKTHTCPPCPAPELLAGPSVFLFPPKPKDTLMISRTPEVTCVVVDVEFEDPEVKFNWYVDGVEVHNAKTKPREEQYNSTYRVVSVLTVLHQDWLNGKEYKCKVTNKALPAPEEKTISKAKGQPREPQVYTLPPSREEMTKNQVSLTCLVKGFYPSDIAVEWESNGQPENNYKTTPPVLDSDGSFFLYSKLTVDKSRWQQGNVFSCSVMHEALHNHYTQKSLSLSPGK
light: B1 light
B3: the “fold increase in binding” value in test [10] came out at 2 fold. Further, the Kd in test [1] was determined as 120 nM; in test [2] it was 490 nM; in [3], 60 nM; in [4], 1100 nM; in [5] it was 6100 nM; in test [6], 252 nM. In addition, the Kd in test [7] amounted to 475000 nM; in test [8] it was 1200 nM. Besides, the “fold-change relative to IgG1” value in [1] amounted to 2 fold; in test [2], 30 fold; in test [3], 1.3 fold; in [4], 9 fold; in test [5], 1 fold; in test [6], 119 fold. Further, the “fold-change relative to IgG1” value came to 0.05 fold in [7] and 19 fold in test [8]. Besides, the “IC50, neutralization of VSV pseudotyped to display EBOV GP” value in test [11] is < 1 µg/mL. Moreover, the “fold higher KD compared to IgG1” value in test [12] stood at 120 fold.

B4: VIC16-EANA (antibody)
heavy: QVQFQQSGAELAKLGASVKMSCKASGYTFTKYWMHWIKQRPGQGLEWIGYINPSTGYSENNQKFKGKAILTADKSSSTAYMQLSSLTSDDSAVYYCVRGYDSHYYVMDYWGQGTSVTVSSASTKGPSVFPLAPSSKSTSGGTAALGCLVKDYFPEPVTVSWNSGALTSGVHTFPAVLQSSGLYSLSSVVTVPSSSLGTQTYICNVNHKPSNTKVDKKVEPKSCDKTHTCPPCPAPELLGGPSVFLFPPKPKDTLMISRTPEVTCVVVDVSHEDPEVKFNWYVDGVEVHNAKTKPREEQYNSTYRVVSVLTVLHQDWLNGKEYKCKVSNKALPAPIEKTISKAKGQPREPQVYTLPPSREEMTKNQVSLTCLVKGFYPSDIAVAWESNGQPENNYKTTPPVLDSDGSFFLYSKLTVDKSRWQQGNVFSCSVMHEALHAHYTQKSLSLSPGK
light: B1 light
Regarding B4, in test [13], the binding result is listed as “binds”.

B5: VIC16-E333A (antibody)
heavy: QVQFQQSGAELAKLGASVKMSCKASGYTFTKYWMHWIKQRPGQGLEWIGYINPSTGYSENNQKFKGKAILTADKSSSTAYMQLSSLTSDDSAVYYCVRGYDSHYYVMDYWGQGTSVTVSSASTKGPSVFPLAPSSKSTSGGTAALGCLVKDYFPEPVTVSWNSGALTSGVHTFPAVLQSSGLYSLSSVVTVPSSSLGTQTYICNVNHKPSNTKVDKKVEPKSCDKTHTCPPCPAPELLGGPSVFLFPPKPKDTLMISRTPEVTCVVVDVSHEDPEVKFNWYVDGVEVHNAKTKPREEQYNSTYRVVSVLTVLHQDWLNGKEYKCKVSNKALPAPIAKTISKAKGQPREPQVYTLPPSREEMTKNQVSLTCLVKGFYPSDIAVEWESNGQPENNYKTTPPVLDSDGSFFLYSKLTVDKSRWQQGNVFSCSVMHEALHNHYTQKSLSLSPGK
light: B1 light
Regarding B5, the binding result in [13] is “binds”.

B6: VIC16-K326W (antibody)
heavy: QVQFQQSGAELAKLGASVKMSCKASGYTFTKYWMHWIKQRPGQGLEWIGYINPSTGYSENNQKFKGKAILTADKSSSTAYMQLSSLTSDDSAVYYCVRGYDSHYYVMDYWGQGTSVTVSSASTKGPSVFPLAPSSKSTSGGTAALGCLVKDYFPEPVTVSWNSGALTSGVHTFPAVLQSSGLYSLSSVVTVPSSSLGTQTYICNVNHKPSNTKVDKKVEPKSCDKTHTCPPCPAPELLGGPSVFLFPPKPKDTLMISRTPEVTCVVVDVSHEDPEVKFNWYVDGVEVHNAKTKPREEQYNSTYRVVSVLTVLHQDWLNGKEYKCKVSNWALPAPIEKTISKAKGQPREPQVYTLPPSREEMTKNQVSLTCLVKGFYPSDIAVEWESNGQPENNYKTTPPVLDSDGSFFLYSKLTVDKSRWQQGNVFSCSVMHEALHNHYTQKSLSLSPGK
light: B1 light
Take B6: in test [9], the binding result is given as “binds”.

B7: VIC16-SDIESA-LS (antibody)
heavy: B3 heavy with A239G, S242D, E270S, F271H, S301A, T327S, M431L, N437S
light: B1 light
With B7, the binding result in test [14] and in [9] was “binds” each time.

B8: VIC16-SAEAKA (antibody)
heavy: B3 heavy with A239G, E270S, F271H, S301A, T327S, E335I, E336A, K337A
light: B1 light
As for B8, the binding result in test [9] and in test [13] was “binds” throughout.

B9: VIC16-MLNS (antibody)
heavy: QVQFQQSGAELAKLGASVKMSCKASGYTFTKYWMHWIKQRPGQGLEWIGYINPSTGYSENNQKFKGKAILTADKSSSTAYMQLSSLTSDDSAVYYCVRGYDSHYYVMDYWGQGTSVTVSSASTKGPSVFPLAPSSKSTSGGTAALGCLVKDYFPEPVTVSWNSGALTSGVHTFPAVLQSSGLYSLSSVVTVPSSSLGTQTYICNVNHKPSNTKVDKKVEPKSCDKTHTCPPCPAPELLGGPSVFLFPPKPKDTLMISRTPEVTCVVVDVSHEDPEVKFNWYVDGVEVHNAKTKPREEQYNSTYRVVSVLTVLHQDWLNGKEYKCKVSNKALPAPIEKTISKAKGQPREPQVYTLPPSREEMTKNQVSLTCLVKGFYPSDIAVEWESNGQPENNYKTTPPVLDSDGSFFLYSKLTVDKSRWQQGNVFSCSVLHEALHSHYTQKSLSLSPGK
light: B1 light
In the case of B9, in test [9], the binding result is given as “binds”.

B10: VIC16-DVNH (antibody)
heavy: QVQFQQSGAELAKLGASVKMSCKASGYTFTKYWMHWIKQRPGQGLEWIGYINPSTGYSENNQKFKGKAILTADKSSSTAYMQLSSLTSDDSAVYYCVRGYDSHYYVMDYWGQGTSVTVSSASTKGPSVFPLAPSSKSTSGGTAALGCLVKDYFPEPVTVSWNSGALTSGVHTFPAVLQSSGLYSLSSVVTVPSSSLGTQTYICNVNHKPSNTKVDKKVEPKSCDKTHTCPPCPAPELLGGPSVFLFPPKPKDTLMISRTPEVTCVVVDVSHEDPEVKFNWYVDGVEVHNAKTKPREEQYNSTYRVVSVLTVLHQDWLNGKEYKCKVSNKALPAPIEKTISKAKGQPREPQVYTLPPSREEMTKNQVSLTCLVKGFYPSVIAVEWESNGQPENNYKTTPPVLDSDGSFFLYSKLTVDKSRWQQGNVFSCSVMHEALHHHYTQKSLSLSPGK
light: B1 light
B10: the binding result in [9] is listed as “binds”.

B11: VIC16-SAEAKA-LS (antibody)
heavy: B3 heavy with A239G, E270S, F271H, S301A, T327S, E335I, E336A, K337A, M431L, N437S
light: B1 light
Take B11: the binding result in test [14], in test [9] and in [13] was “binds” each time.
